Reference: patent publication US20040248233A1 (Dana-Farber, published 2004)
Ends that are not written are not given here.

Legend:
[1] = molecular target: T1, pVHL (HA-tagged: 35S-HA-pVHL in vitro translate, or HA-pVHL produced in ts20 and WT8 cells) (UniProt P40337 1-213); assay: biotinylated peptide, pVHL binding
T1 construct: Also used for sentences that say only 'pVHL'; In cell lysates pVHL is in complex with elongin B, elongin C and Cul2; also called 35S-labeled pVHL; HA-VHL; not shown: HA tag

[2] = molecular target: T1, pVHL (HA-tagged: 35S-HA-pVHL in vitro …); assay: biotinylated peptide on avidin Sepharose, 35S-pVHL
[3] = molecular target: T2, GST-VHL, elongin B, elongin C complexes (GST-VBC), immobilized on glutathione sepharose (UniProt P40337 54-213; Q15370 1-118; Q15369 17-112); assay: capture with immobilized GST-VBC
T2 construct: also called VBC-GST; GST-pVHL, elongin B, elongin C complexes

T1 sequence (P40337 whole entry): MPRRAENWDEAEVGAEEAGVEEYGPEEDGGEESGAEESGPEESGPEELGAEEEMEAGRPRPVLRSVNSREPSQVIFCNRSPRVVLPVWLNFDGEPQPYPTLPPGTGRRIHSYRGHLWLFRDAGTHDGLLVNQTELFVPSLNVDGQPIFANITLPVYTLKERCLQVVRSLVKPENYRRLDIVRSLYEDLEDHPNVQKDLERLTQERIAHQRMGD

Row | Binder | binding result [1] | binding result [3] | other results
1 | DLDLEALAPYIPADDDFQLR (peptide, UniProt Q16665 556-575, looked up, also: biotinylated (position not given here), also called double alanine substitution) [biotinylated HIF (556-575) peptide with Met561 and Met568 converted to alanine] | binds | – | –
2 | DLDLEMLAPYIPADDDFQLR (peptide, UniProt Q16665 556-575, looked up, also: biotinylated (position not given here)) [biotinylated HIF (556-575) peptide with the single substitution Met568 to alanine] | binds | – | –
3 | DLDLEALAPYIPMDDDFQLR (peptide, UniProt Q16665 556-575, looked up, also: biotinylated (position not given here)) [biotinylated HIF (556-575) peptide with the single substitution Met561 to alanine] | binds | – | –
4 | DLDLEMLAAYIPMDDDFQLR (peptide, UniProt Q16665 556-575, looked up, also: biotinylated (position not given here)) [biotinylated HIF1α (556-575) peptide Pro564Ala] | – | – | binding result [2]: no binding
5 | Pro564Ala Gal4-HA-HIF1α (530-652) (other, range 530-652; also called Gal4-ODD Pro564Ala; not shown: Gal4 moiety and HA tag) EFKLELVEKLFAEDTEAKNPFSTQDTDLDLEMLAAYIPMDDDFQLRSFDQLSPLESSSASPESASPQSTVTVFQQTQIQEPTANATTTTATTDELKTVTKDRMEDIKILIASPSPTHIHKETT | – | no binding | –
6 | Leu562Ala Gal4-HA-HIF1α (530-652) (other, range 530-652; also called Gal4-ODD Leu562Ala; not shown: Gal4 moiety and HA tag) EFKLELVEKLFAEDTEAKNPFSTQDTDLDLEMAAPYIPMDDDFQLRSFDQLSPLESSSASPESASPQSTVTVFQQTQIQEPTANATTTTATTDELKTVTKDRMEDIKILIASPSPTHIHKETT | – | no binding | –
